Test results taken from patent publication US20240325562A1, “INTERNALIZING BINDING MOLECULES” (LinXis B.V., priority 2020, published 2024).
Each block holds one molecule with its values, some of them ahead of it.

Columns and labels:
rPDGFRB = rPDGFRB (Rattus norvegicus, UniProt Q05030); assay: Competition assays of PDGFRB VHHs on rPDGFRB; type: binding; details: VHHs from libraries 3 and 4
Method: (§1) Biparatopic VHH constructs contain two VHH which bind to a different epitope, i.e. which are non-competitive binders. To identify (a) pair(s) of non-competitive binders, competition assays were performed. In the example shown, an Alexa fluor-conjugate of the high affine VHH 13F11 was used as the reporter VHH (13F11-A647, see example 10.2). In the assay, a non-saturating amount (10 nM) of 13F11-A647 was incubated with immobilized hIGF2R-ECD in the presence or absence of 250 nM unconjugated competitor VHH to allow competition to take place.
(§2) Similar as to in example 6.1, competition assays were performed to identify unique hPDGFRB- or rPDGFRB binders. Across 10 PDGFRB-binding VHHs obtained from libraries 1 and 2 (e.g. the VHH raised against hPDGFRB), four main groups were identified being first SP01P, SP02P, SP07P and SP13P, second SP05P, SP08P and SP10P, third SP12P and SP20P and finally SP14P. All VHH within each of the first three groups mutually competed.

hPDGFRB = hPDGFRB (Homo sapiens, UniProt P09619); assay: Competition assays of PDGFRB VHHs on hPDGFRB; type: binding; details: IRDye800-conjugated SP26P as reporter
Sequence of hPDGFRB (P09619 33-532 limits assumed): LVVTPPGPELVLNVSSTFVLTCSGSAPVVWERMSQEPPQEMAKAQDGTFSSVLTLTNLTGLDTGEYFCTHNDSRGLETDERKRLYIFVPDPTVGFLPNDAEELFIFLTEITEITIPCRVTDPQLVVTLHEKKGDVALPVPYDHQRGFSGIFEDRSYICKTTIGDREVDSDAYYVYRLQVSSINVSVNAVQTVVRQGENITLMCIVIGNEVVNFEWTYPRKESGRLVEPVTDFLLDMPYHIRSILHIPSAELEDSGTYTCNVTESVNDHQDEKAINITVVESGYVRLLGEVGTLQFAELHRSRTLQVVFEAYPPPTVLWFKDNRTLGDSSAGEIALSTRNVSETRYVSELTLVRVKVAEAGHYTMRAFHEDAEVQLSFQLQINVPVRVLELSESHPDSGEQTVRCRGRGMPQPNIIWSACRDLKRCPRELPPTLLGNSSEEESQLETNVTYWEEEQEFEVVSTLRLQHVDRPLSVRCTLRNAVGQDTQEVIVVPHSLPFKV
Method: as §1, §2
To evaluate whether the obtained VHHs would qualify as building blocks for multivalent VHH constructs that bind hPDGFRB as well as rPDGFRB (e.g. ‘species cross-reactive’ VHH constructs), competition assays were performed using the most promising VHHs SP02 (raised against hPDGFRB) and SP26P (raised against rPDGFRB).

[1] = test system: A549 cells that endogenously express hIGF2R; assay: Internalization by fluorescence microscopy after acid wash, A549 cells; type: cell-based, human; details: 25 nM Alexa fluor 647 conjugate
Method: (§3) First, Alexa fluor 647-conjugates of the VHH 13F11 and the biparatopic VHH construct […] were added to A549 cells that endogenously express hIGF2R (FIG. 16A), NIH 3T3 2.2 cells that were transiently transfected with hIGF2R (FIG. 16B), or mock transfected NIH 3T3 2.2 cells (as a negative control). For this, the cells were incubated with 25 nM of the VHH or the VHH construct. Before fluorescent microscopy readout, to ensure that only signal of internalized VHH or mouse anti-IGF2R was present, an acid wash (0.2M glycine-HCl, 150 mM NaCl, pH 2.3) was used to remove VHH or mouse anti-IGF2R bound to the target receptors on the cell surface. The efficiency of the acid wash procedure was verified by incubating the hIGF2R transfected NIH 3T3 2.2 cells with 13F11-13E8-A647 on ice and subsequently treating these cells with an acid wash while remaining on ice to prevent internalization (FIG. 16D). […] Summarizing, biparatopic 13F11-13E8 clearly internalizes in cells expressing hIGF2R on the cell surface.

[2] = test system: mock transfected NIH 3T3 2.2 cells; assay: Internalization by fluorescence microscopy after acid wash, mock transfected cells; type: cell-based; details: 25 nM Alexa fluor 647 conjugate, negative control cells
Method: as §3

[3] = test system: NIH 3T3 2.2 cells that were transiently transfected with hIGF2R; assay: Internalization by fluorescence microscopy after acid wash, hIGF2R-transfected NIH 3T3 2.2 cells; type: cell-based, human; details: 25 nM Alexa fluor 647 conjugate
Method: as §3

hIGF2R-ECD = target: T1, hIGF2R-ECD (Homo sapiens, UniProt P11717); assay: Competition assay with 13F11-A647 as reporter VHH on immobilized hIGF2R-ECD; type: binding; details: 10 nM 13F11-A647, 250 nM unconjugated competitor VHH
T1 construct: immobilized recombinant human extracellular domain of IGF2R (hIGF2R-ECD) was used
Method: With the term “compete” is meant that in a competition assay, such as for instance described in Example 6 of the present invention, the addition of a binding molecule induces a significant decrease in binding of a given VHH, i.e., the VHH to which the competing is determined. “Significant” in this respect is preferably a decrease of >5%, preferably >10% when 250 nM of a binding molecule is added to 10 nM of a fluorescence labelled VHH in an ELISA. […] The same test conditions and threshold apply to a binding molecule directed to PDGFRB when determining whether a binding molecule competes with a given VHH.
as §1

IGF2R [4] = target: T2, IGF2R (Rattus norvegicus, UniProt G3V824); assay: Staining of rat tissue cryo-sections for IGF2R; details: 50 nM, overnight 4° C.
T2 construct: from tissue; host or cells: cryo-sections of rat tissues (liver, kidney, spleen, heart, ileum, brain); Sprague-Dawley BDL and SHAM rats
T2 sequence (G3V824 36-2481): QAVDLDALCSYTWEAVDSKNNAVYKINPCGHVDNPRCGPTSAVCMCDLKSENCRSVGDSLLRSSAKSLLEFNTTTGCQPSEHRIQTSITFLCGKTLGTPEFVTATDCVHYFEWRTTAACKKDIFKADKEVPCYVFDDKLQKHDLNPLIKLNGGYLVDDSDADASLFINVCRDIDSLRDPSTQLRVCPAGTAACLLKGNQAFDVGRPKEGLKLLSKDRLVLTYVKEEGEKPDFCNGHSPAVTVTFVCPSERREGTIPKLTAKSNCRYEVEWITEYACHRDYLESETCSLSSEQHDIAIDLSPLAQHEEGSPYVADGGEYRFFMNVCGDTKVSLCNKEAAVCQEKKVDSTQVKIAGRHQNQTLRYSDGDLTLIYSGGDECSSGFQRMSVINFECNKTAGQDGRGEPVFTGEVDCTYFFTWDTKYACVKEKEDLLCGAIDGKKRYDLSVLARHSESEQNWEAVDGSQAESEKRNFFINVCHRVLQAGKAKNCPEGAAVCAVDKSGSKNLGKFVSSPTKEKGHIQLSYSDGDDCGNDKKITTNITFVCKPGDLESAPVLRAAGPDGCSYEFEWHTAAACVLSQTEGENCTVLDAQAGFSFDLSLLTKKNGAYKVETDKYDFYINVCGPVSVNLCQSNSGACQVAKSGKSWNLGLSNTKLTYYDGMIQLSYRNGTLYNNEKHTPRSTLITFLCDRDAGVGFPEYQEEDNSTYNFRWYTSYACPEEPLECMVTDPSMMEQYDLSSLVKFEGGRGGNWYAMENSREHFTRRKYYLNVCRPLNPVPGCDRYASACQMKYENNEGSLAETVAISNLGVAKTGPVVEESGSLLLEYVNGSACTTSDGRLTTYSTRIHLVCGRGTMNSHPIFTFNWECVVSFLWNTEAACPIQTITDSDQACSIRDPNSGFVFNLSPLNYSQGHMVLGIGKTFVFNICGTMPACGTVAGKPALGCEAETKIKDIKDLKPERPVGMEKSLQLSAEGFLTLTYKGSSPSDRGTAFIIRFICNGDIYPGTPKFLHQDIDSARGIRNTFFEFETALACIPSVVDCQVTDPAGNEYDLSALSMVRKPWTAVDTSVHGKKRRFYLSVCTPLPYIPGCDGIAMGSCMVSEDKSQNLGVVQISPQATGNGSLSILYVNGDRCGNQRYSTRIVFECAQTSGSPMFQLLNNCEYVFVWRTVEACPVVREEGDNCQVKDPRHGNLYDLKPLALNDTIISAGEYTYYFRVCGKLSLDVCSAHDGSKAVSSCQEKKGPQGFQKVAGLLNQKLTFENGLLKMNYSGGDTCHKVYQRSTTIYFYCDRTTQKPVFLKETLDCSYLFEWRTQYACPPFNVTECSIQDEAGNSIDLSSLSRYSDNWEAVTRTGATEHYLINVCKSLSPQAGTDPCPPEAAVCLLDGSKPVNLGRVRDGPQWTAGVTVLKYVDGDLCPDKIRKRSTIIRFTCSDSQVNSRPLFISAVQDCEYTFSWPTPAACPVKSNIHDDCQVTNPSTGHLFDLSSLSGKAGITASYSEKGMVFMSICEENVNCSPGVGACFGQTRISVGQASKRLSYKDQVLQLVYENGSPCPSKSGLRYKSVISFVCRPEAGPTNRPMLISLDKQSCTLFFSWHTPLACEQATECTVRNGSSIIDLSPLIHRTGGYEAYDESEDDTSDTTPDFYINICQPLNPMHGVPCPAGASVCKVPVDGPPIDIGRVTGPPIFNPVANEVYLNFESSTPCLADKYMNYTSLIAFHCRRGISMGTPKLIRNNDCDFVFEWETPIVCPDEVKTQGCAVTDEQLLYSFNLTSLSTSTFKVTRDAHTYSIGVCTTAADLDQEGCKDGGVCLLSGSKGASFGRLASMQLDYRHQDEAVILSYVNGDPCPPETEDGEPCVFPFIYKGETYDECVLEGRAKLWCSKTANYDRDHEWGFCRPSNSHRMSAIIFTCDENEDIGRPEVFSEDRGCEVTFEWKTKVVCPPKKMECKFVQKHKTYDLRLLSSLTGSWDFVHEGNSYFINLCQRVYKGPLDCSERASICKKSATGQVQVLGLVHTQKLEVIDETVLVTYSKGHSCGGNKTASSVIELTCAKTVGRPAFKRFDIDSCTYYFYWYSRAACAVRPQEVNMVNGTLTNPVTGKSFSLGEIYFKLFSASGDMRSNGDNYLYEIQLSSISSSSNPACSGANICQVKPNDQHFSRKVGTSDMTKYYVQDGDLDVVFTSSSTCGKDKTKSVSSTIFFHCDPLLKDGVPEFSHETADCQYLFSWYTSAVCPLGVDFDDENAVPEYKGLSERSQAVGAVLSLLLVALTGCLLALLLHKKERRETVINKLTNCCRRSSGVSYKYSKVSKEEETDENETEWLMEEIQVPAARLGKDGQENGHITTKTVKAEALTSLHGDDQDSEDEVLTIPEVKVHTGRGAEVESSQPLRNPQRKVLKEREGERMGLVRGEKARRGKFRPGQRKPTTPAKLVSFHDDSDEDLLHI
Method: (§4) To evaluate whether F11E8-ABD bound to IGF2R as (over-) expressed in the cirrhotic liver, various cryo-sections of tissues (liver, kidney, spleen, heart, ileum, brain) obtained from both healthy (SHAM) and cirrhotic (BDL) rats (preparation procedure as outlined in example 15) were stained with 13F11-13E8-ABD conjugated to Alexa Fluor 647 (13F11-13E8-ABD-A647, conjugation method as described in example 10.2.). Staining was performed with 50 nM 13F11-13E8-ABD-AF647 during overnight incubation at 4° C. Subsequently, the sections were washed and stained with DAPI, mounted with mowiol mounting medium (Merck) and imaged on a Zeiss LSM700 laser scanning confocal microscope with a 20× objective. […] In the tissues other than the liver, no upregulation of IGF2R was observed.

IGF2R [5] = target: T2, IGF2R; assay: In situ detection of infused test conjugate in liver sections; type: in vivo; details: for detection of conjugate in liver: one hour after 5 mg/kg i.v., anti-VHH antiserum
Method: (§5) After catheterization and hemodynamic stabilization, rats were dosed with 5 mg/kg test conjugate or mock conjugate i.v. through the lateral tail vein and pressures were monitored continuously (example 15.1.). One hour after dosing, animals were sacrificed after which tissues were isolated for ex vivo analysis (example 15.2.).
After isolation, livers obtained from test conjugate-infused BDL and SHAM rats were fixated with paraformaldehyde, soaked in 30% (w/v) sucrose in PBS, and sectioned using cryo-microtome.
To detect the test conjugate in situ, tissue sections were stained with a rabbit polyclonal anti-VHH antiserum recognizing the 13F11-13E8 moiety of the conjugate, followed by an anti-rabbit antibody conjugated to the fluorophore Alexa-488 for visualization by confocal fluorescence microscopy (cf. example 14).

[6] = test system: BDL rats (portal hypertension); assay: Portal pressure and mean arterial pressure in BDL and SHAM rats; type: in vivo, Sprague-Dawley rats; details: 5 mg/kg i.v.
From the text: To evaluate in vivo functionality, 13F11-13E8-ABD was conjugated to a Y27632-maleimide modified functional moiety (1e) (the test conjugate) as outlined in example 10.2. To provide a comparator, a similar amount of 13F11-13E8-ABD was conjugated to N-ethylmaleimide in a parallel and similar preparation (the mock conjugate).
To establish animals displaying portal hypertension (Klein et al, Fibrosis: Methods and Protocols. Methods in Molecular Biology. 2017 (1627): 91-122.), Sprague-Dawley rats were subjected to bile duct ligation (BDL) through median laparotomy under ketamine/xylazine-induced anaesthesia i.p. (BDL rats). To provide healthy controls, a second cohort of rats was subjected to the same surgical procedure except for actual ligation of the bile duct (SHAM rats). Surgery was followed-up with pain control medication (carprofen s.c.). Approximately five weeks after surgery, ketamine/xylazine anesthetized rats were subjected to median laparotomy, after which one catheter was inserted through an ileocecal vein to the portal vein, and one catheter was inserted into the femoral artery. The catheters were connected to pressure recording equipment, for assessment of portal pressure and mean arterial pressure, respectively.
as §5

PDGFRB = target: T3, PDGFRB (Rattus norvegicus, UniProt Q05030); assay: Staining of rat tissue cryo-sections for PDGFRB; details: 50 nM, overnight 4° C.
T3 construct: from tissue; host or cells: cryo-sections of rat tissues (liver, kidney, spleen, heart, ileum, brain) of BDL and SHAM rats
T3 sequence (Q05030 32-1097): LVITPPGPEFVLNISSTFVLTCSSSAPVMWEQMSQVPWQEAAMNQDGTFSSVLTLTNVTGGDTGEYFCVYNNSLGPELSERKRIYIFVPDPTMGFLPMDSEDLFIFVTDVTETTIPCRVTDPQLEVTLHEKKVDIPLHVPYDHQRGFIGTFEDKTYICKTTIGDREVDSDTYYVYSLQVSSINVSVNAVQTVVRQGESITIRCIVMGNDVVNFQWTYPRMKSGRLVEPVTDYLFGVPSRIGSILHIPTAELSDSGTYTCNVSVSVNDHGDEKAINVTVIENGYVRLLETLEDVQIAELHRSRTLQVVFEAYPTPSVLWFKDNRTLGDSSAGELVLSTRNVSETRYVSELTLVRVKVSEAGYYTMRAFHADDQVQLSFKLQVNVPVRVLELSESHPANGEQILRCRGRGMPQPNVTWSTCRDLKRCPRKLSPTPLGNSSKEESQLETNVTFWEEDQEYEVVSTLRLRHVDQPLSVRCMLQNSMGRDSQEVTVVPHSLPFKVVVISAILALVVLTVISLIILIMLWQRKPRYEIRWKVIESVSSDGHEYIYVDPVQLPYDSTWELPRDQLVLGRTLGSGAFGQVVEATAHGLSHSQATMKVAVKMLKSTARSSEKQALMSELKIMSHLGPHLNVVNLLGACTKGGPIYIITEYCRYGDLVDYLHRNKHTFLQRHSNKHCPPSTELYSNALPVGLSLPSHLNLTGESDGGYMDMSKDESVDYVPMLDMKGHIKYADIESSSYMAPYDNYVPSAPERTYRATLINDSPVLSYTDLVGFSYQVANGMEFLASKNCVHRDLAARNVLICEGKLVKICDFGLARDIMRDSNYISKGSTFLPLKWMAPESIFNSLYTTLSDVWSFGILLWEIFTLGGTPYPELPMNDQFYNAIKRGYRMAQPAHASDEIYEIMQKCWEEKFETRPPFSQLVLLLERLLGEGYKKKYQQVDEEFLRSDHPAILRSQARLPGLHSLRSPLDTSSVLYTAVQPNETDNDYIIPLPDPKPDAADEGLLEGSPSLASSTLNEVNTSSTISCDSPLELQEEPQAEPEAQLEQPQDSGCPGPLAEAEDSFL
Method: as §4, with “SP02-SP26-ABD” for “F11E8-ABD”, “PDGFRB” for “IGF2R”, “SP02-SP26-ABD” for “13F11-13E8-ABD”, “(SP02-SP26-ABD-A647,” for “(13F11-13E8-ABD-A647,”, “SP02-SP26-ABD-AF647” for “13F11-13E8-ABD-AF647”, “(Merck),” for “(Merck)”

[7] = BDL rats, monitored for one hour

Sequence of rPDGFRB (Q05030 32-1097): as above

epitope compared to SP27P, SP28P, SP30P, SP31P and SP36P (rPDGFRB): unique epitope
competition between SP02 and SP26P (hPDGFRB): did not compete
B1: SP26P: VHH single domain antibody targeting PDGFRB, SEQ ID NO: 153 (protein)
VHH: EVQLVESGGGLVQAGGSLRLSCAASGRSFSSSVMGWFRQTPGKEREFVAATRWTAASTHYADSVKGRFTISRDHAENAVFLQMNSLKPEDTAVYYCAAGNYLDTAQYRYNYWGQGTQVTVSS

competition with reporter VHH 13F11-A647 (hIGF2R-ECD): competed with 13F11-A647
B2: 13F11: VHH single domain antibody targeting IGF2R, SEQ ID NO: 273 (protein)
VHH: EVQLVESGGRLVQPGDSLRLSCAASGRTFSDNAMGWFRQAPGKERRFVAGISWAGGSTYYSDSVKGRFTISRDNAKNTVYLQMNSLKPEDTAVYYCAAGLRAWVQRMPKDYNYWGQGTQVTVSS
internalization [1]: no internalization was observed
internalization [2]: no internalization was observed
internalization [3]: internalized

staining of cirrhotic (BDL) rat liver (IGF2R [4]): strongly stains activated fibroblasts
staining of normal (SHAM) rat liver (IGF2R [4]): only background signal was detected
B3: 13F11-13E8-ABD-AF647: 13F11-13E8-ABD conjugated to Alexa Fluor 647 (conjugate)
chain: EVQLVESGGRLVQPGDSLRLSCAASGRTFSDNAMGWFRQAPGKERRFVAGISWAGGSTYYSDSVKGRFTISRDNAKNTVYLQMNSLKPEDTAVYYCAAGLRAWVQRMPKDYNYWGQGTQVTVSSGGGGSGGGGSGGGGSEVQLVESGGGLVQAGGSLRLSCAASRSISPMGWYRQAPGKQRELVAIMPSSGPPIYADSVQGRFTISRDNAKNTVYLQMNSLKPEDTAVYYCNVGGGYWGQGTQVTVSS
modifications: left off: large carriers; small tags and cut ends

B4: test conjugate: 13F11-13E8-ABD conjugated to a Y27632-maleimide modified functional moiety (1e) (conjugate)
chain: B3 chain
modifications: non-natural residues; left off: large carriers; small tags and cut ends
detection of conjugate in liver (IGF2R [5]; BDL rats): detected in the liver of BDL rats
distribution in liver versus (tissue) distribution of IGF2R (IGF2R [5]; BDL rats, second staining with 13F11-13E8-A647): overlapped
detection of conjugate in liver (IGF2R [5]; SHAM rats): not in the liver of SHAM rats
mean arterial pressure (MAP) [6, 7]: remained constant
portal pressure (PP) [6, 7]: gradual decrease of portal pressure
portal or arterial pressure ([6]; SHAM rats): neither the test conjugate nor the mock conjugate affected portal or arterial pressure

staining of cirrhotic (BDL) rat liver (PDGFRB): strongly stains activated fibroblasts
staining of normal (SHAM) rat liver (PDGFRB): only background signal was detected
B5: SP02-SP26-ABD-AF647: SP02-SP26-ABD conjugated to Alexa Fluor 647 (conjugate)
chain: EVQLVESGGGLVQAGGSLRLSCAASESISSIEQMGWFRQAPGKQRALVAINTYGGRTVYTNSVEGRFTMSRDSAKNMVYLQMTSLEPEDTAVYYCYAQTTAWRGGVWGQGTQVTVSSGGGGSGGGGSGGGGSEVQLVESGGGLVQAGGSLRLSCAASGRSFSSSVMGWFRQTPGKEREFVAATRWTAASTHYADSVKGRFTISRDHAENAVFLQMNSLKPEDTAVYYCAAGNYLDTAQYRYNYWGQGTQVTVSS
modifications: left off: large carriers; small tags and cut ends
